From patent US20050124794A1, “Cell surface tropomyosin as a target of angiogenesis inhibition” (priority 2002, published 2005)
Where “and” joins values, the source holds several entries; their conditions need not be identical. Equal entries are not always repeated. Entries after “also recorded” stand apart in the source; their conditions may differ.

How the values were obtained:
[1] = system: proliferating ECs; assay: Assessment of EC apoptosis (DAPI, TUNEL, DNA cleavage); type: cell-based, human
Experimental: Assessment of EC apoptosis. The effect of TM-311 on HKa- or HKa D5-induced EC apoptosis was determined using several methods. First, staining of control or HKa exposed ECs using 4′, 6′-diamidino-2-phenylindole dihydrochloride (DAPI) (Molecular Probes, Eugene Oreg.) was employed to highlight apoptosis-associated changes in nuclear morphology. Second, apoptosis was assessed by TUNEL staining, using the Apo-Direct kit (Pharmingen, San Diego, Calif.). Cells were counterstained with propidium iodide to define all nuclei, and the percentage of apoptotic CUNEL positive) nuclei determined by manual counting. Finally, to assess endothelial apoptosis by endonucleolytic cleavage of DNA, EC DNA was isolated and separated using 0.8% agarose gel electrophoresis. Gels were stained with ethidium bromide, and DNA visualized using UV light.

[2] = target: T1, chicken gizzard Tpm (Gallus gallus, UniProt P19352); assay: Binding of HKa to purified Tpm immobilized in 96 well microplates; settings: biotin-HKa, Zn2+-dependent (10 μM Zn2+), nonlinear regression; read-out: Kd of binding of HKa to purified Tpm
T1 construct: purchased Sigma; host or cells: chicken gizzard (tissue-derived, as the name says)
Experimental: To measure the binding of HKa to purified Tpm, 96 well microplates were coated with 20 μg/ml of chicken gizzard Tpm (Sigma), or bovine serum albumin (BSA), as a control. Wells were then blocked by incubation with phosphate buffered saline containing 5% nonfat milk, and incubated with increasing concentrations of HKa (0.01-20 nM) for 2 hours. Specifically-bound HKa was quantitated as described for cell binding assays (van Iwaarden et al., supra, and by assessing the ability of a 100-fold molar excess of unlabeled HKa to compete with biotin-HKa for binding.
In selected experiments, the ability of mAb TM-311 and recombinant HKa D5 to inhibit the binding of biotin-HKa to Tpm was assessed. These studies allowed determination of the Kd for binding of HKa D5 to Tpm using the equation: Kd (D5)=IC50/(1+[HKa]/Kd (HKa)) where IC50 is the concentration of HKa D5 that inhibited HKa binding by 50%, and Kd(HKa) is the Kd for binding of HKa to Tpm.

[3] = target: T1, chicken gizzard Tpm; assay: Binding to immobilized Tpm in a 96 well plate (biotin-HKa competition or direct binding); settings: plate coated with 200 ng chicken gizzard Tpm, 10 μM ZnCl2
Experimental: Plates are coated at room temperature with chicken gizzard Tpm (Sigma) in Tris buffer-saline (TBS) (200 ng/well). After incubation for 2 hours, wells are washed with TBS, then 1% BSA/TBS/Tween-20 is added to each well and incubate at 37° C. for two hours. HKa (Enzyme Laboratories) that had been previously biotinylated with EZ-Link (Pierce) according to the manufacturers instructions, is added to the plate at a concentration of 10 nM together with ZnCl2 (10 μM) and the appropriate concentration of the protein, domain or peptide competitor. The plates are incubated at room temperature and then washed with TBS/Tween-20. Avidin-HRP is added, incubated for 20 minutes at room temperature, washed with TBS/Tween-20 and the chromogenic substrate is added. The reaction is stopped with sulfuric acid and the plate read at 490 nm.
The IC50 for the displacement of biotinylated-HKa for the peptides shown in Table 5 was determined as follows: 10 nM biotin-HKa is added to a 96 well plate previously coated with 200 ng of chicken gizzard Tpm in the presence of 10 μM ZnCl2. Increasing amounts of the peptides are added to the wells. The remaining biotin-HKa bound to Tpm was detected using avidin-HRP and a chromogenic substrate. A Kd was determined by non-linear regression analysis of the empirical data. The effect on the Matrigel Plug assay was determined as follows: Matrigel (0.5 mL) containing 400 ng/ml of bFGF, 50 μg/ml heparin with or without the peptide (300 μM) or saline buffer are injected in the flanks of a mouse. After five days, the plugs are removed and the plugs scanned.
The N-terminus of the pentapeptide HHPHG has been derivatized (capped) in an attempt to increase the pentapeptides' affinity to Tpm by increasing productive molecular contacts (or interactions). […] The IC50 for the displacement of biotinylated-HKa for the capped peptides shown in the table was determined as follows: 10 nM biotin-HKa was added to a 96 well plate previously coated with 200 ng of chicken gizzard Tpm in the presence of 10 μM ZnCl2. Increasing amounts of the peptides were added to the wells. The remaining biotin-HKa bound to Tpm was detected using avidin-HRP and a chromogenic substrate. A Kd was determined by non-linear regression analysis of the empirical data

[4] = system: bFGF-induced angiogenesis in the chick chorioallantoic membrane; assay: Chick chorioallantoic membrane (CAM) assay; type: in vivo
Experimental: This assay is performed essentially as described by Nguyen et al (Microvascular Res. 47:31-40 (1994)). A mesh containing either angiogenic factors (bFGF) or tumor cells plus inhibitors is placed onto the CAM of an 8-day old chick embryo and the CAM observed for 3-9 days after implantation of the sample. Angiogenesis is quantitated by determining the percentage of squares in the mesh which contain blood vessels.
Chick chorioallantoic membrane assay. […] Three day-old fertilized White Leghorn chicken eggs were cracked in sterile Petri dishes. Embryos were cultured at 37° C., under 4% CO2, until day 7, at which time a 3.0 mm filter disc containing either 30 ng bFGF (positive control), 30 ng bFGF and 10 μg HKa or 30 ng bFGF, 10 μg HKa and 20 μg of mAb TM-311 was placed on the CAM. Each experimental condition was tested in at least 6 eggs. On day 10, embryos were photographed using a SPOT digital camera Angiogenesis was quantitated by counting the number of neovessels in direct contact with the filter disc.

[5] = system: HUVEC; assay: EC proliferation assay (growth factor-induced); type: cell-based, human; settings: bFGF 10 ng/ml; 20 nM HKa, 60 nM HKa domain 5
Experimental: EC proliferation assays. The effect of HKa on ECs in the absence or presence of mAb TM-311 was initially assessed using a proliferation assay, as described in Zhang et al., supra. Relative numbers of cells remaining in each well of a 96 well microplate after incubation for 48 hours in the absence or presence of HKa were determined using the Aqueous® cell proliferation assay (Promega, Madison, Wis.). Results are presented as the percent inhibition of bFGF-induced EC proliferation, which essentially reflects the extent of HKa-induced EC apoptosis. Though bFGF was used as the EC mitogen in most studies of the studies described herein, identical results were obtained using VEGF.

[6] = system: proliferating ECs; assay: Binding of biotin-HKa to ECs; parameters: species or system human; settings: Zn2+-dependent (10 μM Zn2+), nonlinear regression, read-out: Kd of specific binding of HKa to proliferating ECs
Experimental: Binding of HKa to ECs and purified Tpm. Binding of HKa to ECs was measured as described by Hasan, A A et al. (1995) J. Biol. Chem. 270:19256-19261. Briefly, 3×10^4 HLVEC/ml were cultured in 96-well microplates, then washed and incubated with increasing concentrations of biotin-HKa for two hours, at 4° C. After brief washing, cells were incubated sequentially with a 1:750 dilution of streptavidin peroxidase and the peroxidase substrate, turbo-TMB (Pierce), prior to measurement of A490. Absolute amounts of bound HKa were determined by comparison of A490 values with a standard curve prepared using known amounts of biotin-HKa Binding was measured in the presence (to determine total binding) and absence (to determine non-specific binding) of 10 μM Zn^2+, and specific binding defined as the difference between total and non-specific binding (van Iwaarden, F et al. (1988) J. Biol. Chem. 263:4698-4703). The dissociation constant (Kd) was determined by fitting the saturation isotherm by nonlinear regression using the Prism software program (GraphPad, San Diego, Calif.).
In selected experiments, the ability of mAb TM-311 to inhibit the binding of HKa to cells was assessed by incubating biotin-HKa with ECs in the presence of increasing concentrations of antibody. […]

T1 sequence (P19352 1-284 isoform P19352-2): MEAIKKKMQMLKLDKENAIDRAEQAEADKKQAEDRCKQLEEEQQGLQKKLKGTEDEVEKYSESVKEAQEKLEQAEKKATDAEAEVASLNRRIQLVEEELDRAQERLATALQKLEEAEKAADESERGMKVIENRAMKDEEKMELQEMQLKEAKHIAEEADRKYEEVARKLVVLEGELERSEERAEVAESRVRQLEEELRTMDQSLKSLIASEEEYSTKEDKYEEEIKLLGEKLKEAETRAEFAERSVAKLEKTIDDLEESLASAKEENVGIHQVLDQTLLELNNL
T1 sequence (P04268 1-284 isoform P04268-2 F73S/I172L/T199L/N203E/L204A partner): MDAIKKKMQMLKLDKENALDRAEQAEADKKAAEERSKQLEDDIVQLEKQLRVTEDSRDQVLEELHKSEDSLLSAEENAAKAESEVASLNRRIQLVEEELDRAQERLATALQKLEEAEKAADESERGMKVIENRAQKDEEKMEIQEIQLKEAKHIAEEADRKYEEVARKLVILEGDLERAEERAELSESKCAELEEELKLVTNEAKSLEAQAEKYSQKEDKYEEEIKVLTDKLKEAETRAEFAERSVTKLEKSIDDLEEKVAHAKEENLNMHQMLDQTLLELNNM

- Kd [2]: ~2.6 nM and ~2.5 nM
- Kd [3]: ~1 nM
B1: HKa: Two-chain high molecular weight kininogen, purchased from Enzyme Research Laboratories (protein)
chain 1: QESQSEEIDCNDKDLFKAVDAALKKYNSQNQSNNQFVLYRITEATKTVGSDTFYSFKYEIKEGDCPVQSGKTWQDCEYKDAAKAATGECTATVGKRSSTKFSVATQTCQITPAEGPVVTAQYDCLGCVHPISTQSPDLEPILRHGIQYFNNNTQHSSLFMLNEVKRAQRQVVAGLNFRITYSIVQTNCSKENFLFLTPDCKSLWNGDTGECTDNAYIDIQLRIASFSQNCDIYPGKDFVQPPTKICVGCPRDIPTNSPELEETLTHTITKLNAENNATFYFKIDNVKKARVQVVAGKKYFIDFVARETTCSKESNEELTESCETKKLGQSLDCNAEVYVVPWEKKIYPTVNCQPLGMISLMK
chain 2: SSRIGEIKEETTVSPPHTSMAPAQDEERDSGKEQGHTRRHDWGHEKQRKHNLGHGHKHERDQGHGHQRGHGLGHGHEQQHGLGHGHKFKLDDDLEHQGGHVLDHGHKHKHGHGHGKHKNKGKKNGKHNGWKTEHLASSSEDSTTPSAQTQEKTEGPTPIPSLAKPGVTVTFSDFQDSDLIATMMPPISPAPIQSDDDWIPDIQTDPNGLSFNPISDFPDTTSPKCPGRPWKSVSEINPTTQMKESYYFDLTDGLS
- induction of EC apoptosis (in words) [1]: induction of EC apoptosis
- inhibition of angiogenesis induced by bFGF-containing filter discs, vessel counts ([4]; 30 ng bFGF, 10 μg HKa): about 85%
- inhibition of bFGF-induced angiogenesis in the CAM (in words) ([4]; in vivo): inhibited basic FGF-induced angiogenesis; also recorded: antiangiogenic activity
- inhibition of bFGF-induced EC proliferation (in words) [5]: inhibition
- Kd [6]: ~2.5 nM and ~2.6 nM
